Reference: patent publication US20150344570A1 (published 2015)

T1: FcγRIIb (human, UniProt P31994 43-217)
T1 construct: extracellular domain; also called 2b; not shown: His tag at the C terminus
T1 sequence (looked up): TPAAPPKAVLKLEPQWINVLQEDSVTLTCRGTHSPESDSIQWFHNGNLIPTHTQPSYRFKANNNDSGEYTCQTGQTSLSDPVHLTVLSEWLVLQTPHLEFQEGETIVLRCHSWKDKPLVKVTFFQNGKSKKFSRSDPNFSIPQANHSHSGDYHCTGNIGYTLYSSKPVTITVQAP

T2: FcγRIIa H (human, UniProt P12318 34-217)
T2 construct: extracellular domain; also called FcγRIIa type H; 2aH; not shown: His tag at the C terminus
T2 sequence (looked up): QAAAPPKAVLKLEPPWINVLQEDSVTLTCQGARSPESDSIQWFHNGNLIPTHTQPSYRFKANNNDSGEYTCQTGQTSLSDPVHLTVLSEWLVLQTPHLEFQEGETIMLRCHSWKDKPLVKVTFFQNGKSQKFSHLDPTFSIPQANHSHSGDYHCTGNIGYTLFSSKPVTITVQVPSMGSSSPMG


Columns and labels:
FcγRIIb = target: T1, FcγRIIb; experiment: SPR (Biacore), antibody captured, FcγR as analyte; binding relative to GpH7-A5/GpH7-B3/GpL16-k0 = 100
Description: (§1) The heterodimerized antibodies He Abs in which one of the H chains was introduced with an alteration were assayed for their binding activities to each activating FcγR and inhibitory FcγR according to the method described in Example 4. […] The activating FcγRs in FIGS. 26, 27, 28, and 29 are FcγRIa, FcγRIIa (R), FcγRIIa (H), and FcγRIIIa, respectively.
(§2) Analysis of interaction between objective antibody and the FcγR was carried out using Biacore T100 (GE Healthcare). HBS-EP+ (GE Healthcare) was used as the running buffer, and the measurement temperature was set to 25° C. Chips produced by immobilizing the antigen peptide by the amine coupling method to a Series S Sencor Chip CM5 (GE Healthcare), or alternatively, chips produced by allowing preliminarily biotinylated antigen peptides to interact with and immobilize onto a Series S Sensor Chip SA (certified) (GE Healthcare) were used. Antibodies of interest were captured onto an antigen peptide-immobilized chip, and allowed to interact to each FcγR diluted with running buffer. To regenerate and repeatedly use the chip, the antibodies captured on the chip were washed off by reacting 10 mM glycine-HCl, pH 1.5.

FcγRIIa H = target: T2, FcγRIIa H; experiment: as above
Description: as §1, §2

Row | Binder | He/Con_2b (FcγRIIb) | He/Con_2aH (FcγRIIa H)
1 | GpH7-A5/GpH7-B3 variant I332_19Q/GpL16-k0 (antibody, human IgG1, kappa, Heterodimerized IgG1; mutation in the GpH7-B3 chain only; also called He Ab) heavy 1: not shown heavy 2: not shown light: DIVMTQSPLSLPVTPGEPASISCQASESLVHSNRNTYLHWYLQKPGQSPQLLIYKVSNRFSGVPDRFSGSGSGTDFTLKISRVEAEDVGVYYCSQNTHVPPTFGQGTKVEIERTVAAPSVFIFPPSDEQLKSGTASVVCLLNNFYPREAKVQWKVDNALQSGNSQESVTEQDSKDSTYSLSSTLTLSKADYEKHKVYACEVTHQGLSSPVTKSFNRGEC | 94.3 % of control | 108 % of control
2 | GpH7-A5/GpH7-B3 variant I336_03V/GpL16-k0 (antibody, human IgG1, kappa, Heterodimerized IgG1; mutation in the GpH7-B3 chain only; also called He Ab) heavy 1: not shown heavy 2: not shown light: DIVMTQSPLSLPVTPGEPASISCQASESLVHSNRNTYLHWYLQKPGQSPQLLIYKVSNRFSGVPDRFSGSGSGTDFTLKISRVEAEDVGVYYCSQNTHVPPTFGQGTKVEIERTVAAPSVFIFPPSDEQLKSGTASVVCLLNNFYPREAKVQWKVDNALQSGNSQESVTEQDSKDSTYSLSSTLTLSKADYEKHKVYACEVTHQGLSSPVTKSFNRGEC | 90.3 % of control | 102 % of control
3 | GpH7-A5/GpH7-B3 variant K326_12R/GpL16-k0 (antibody, human IgG1, kappa, Heterodimerized IgG1; mutation in the GpH7-B3 chain only; also called He Ab) heavy 1: not shown heavy 2: not shown light: DIVMTQSPLSLPVTPGEPASISCQASESLVHSNRNTYLHWYLQKPGQSPQLLIYKVSNRFSGVPDRFSGSGSGTDFTLKISRVEAEDVGVYYCSQNTHVPPTFGQGTKVEIERTVAAPSVFIFPPSDEQLKSGTASVVCLLNNFYPREAKVQWKVDNALQSGNSQESVTEQDSKDSTYSLSSTLTLSKADYEKHKVYACEVTHQGLSSPVTKSFNRGEC | 89.2 % of control | 101 % of control
4 | GpH7-A5/GpH7-B3 variant I332_13S/GpL16-k0 (antibody, human IgG1, kappa, Heterodimerized IgG1; mutation in the GpH7-B3 chain only; also called He Ab) heavy 1: not shown heavy 2: not shown light: DIVMTQSPLSLPVTPGEPASISCQASESLVHSNRNTYLHWYLQKPGQSPQLLIYKVSNRFSGVPDRFSGSGSGTDFTLKISRVEAEDVGVYYCSQNTHVPPTFGQGTKVEIERTVAAPSVFIFPPSDEQLKSGTASVVCLLNNFYPREAKVQWKVDNALQSGNSQESVTEQDSKDSTYSLSSTLTLSKADYEKHKVYACEVTHQGLSSPVTKSFNRGEC | 98.4 % of control | 110 % of control
5 | GpH7-A5/GpH7-B3 variant I332_16H/GpL16-k0 (antibody, human IgG1, kappa, Heterodimerized IgG1; mutation in the GpH7-B3 chain only; also called He Ab) heavy 1: not shown heavy 2: not shown light: DIVMTQSPLSLPVTPGEPASISCQASESLVHSNRNTYLHWYLQKPGQSPQLLIYKVSNRFSGVPDRFSGSGSGTDFTLKISRVEAEDVGVYYCSQNTHVPPTFGQGTKVEIERTVAAPSVFIFPPSDEQLKSGTASVVCLLNNFYPREAKVQWKVDNALQSGNSQESVTEQDSKDSTYSLSSTLTLSKADYEKHKVYACEVTHQGLSSPVTKSFNRGEC | 93 % of control | 109 % of control

Next, values leading:

Row | He/Con_2b (FcγRIIb) | He/Con_2aH (FcγRIIa H) | Binder
6 | 83.5 % of control | 102 % of control | GpH7-A5/GpH7-B3 variant S324_16H/GpL16-k0 (antibody, human IgG1, kappa, Heterodimerized IgG1; mutation in the GpH7-B3 chain only; also called He Ab) heavy 1: not shown heavy 2: not shown light: DIVMTQSPLSLPVTPGEPASISCQASESLVHSNRNTYLHWYLQKPGQSPQLLIYKVSNRFSGVPDRFSGSGSGTDFTLKISRVEAEDVGVYYCSQNTHVPPTFGQGTKVEIERTVAAPSVFIFPPSDEQLKSGTASVVCLLNNFYPREAKVQWKVDNALQSGNSQESVTEQDSKDSTYSLSSTLTLSKADYEKHKVYACEVTHQGLSSPVTKSFNRGEC
7 | 67.5 % of control | 103 % of control | GpH7-A5/GpH7-B3 variant Q295_05P/GpL16-k0 (antibody, human IgG1, kappa, Heterodimerized IgG1; mutation in the GpH7-B3 chain only; also called He Ab) heavy 1: not shown heavy 2: not shown light: DIVMTQSPLSLPVTPGEPASISCQASESLVHSNRNTYLHWYLQKPGQSPQLLIYKVSNRFSGVPDRFSGSGSGTDFTLKISRVEAEDVGVYYCSQNTHVPPTFGQGTKVEIERTVAAPSVFIFPPSDEQLKSGTASVVCLLNNFYPREAKVQWKVDNALQSGNSQESVTEQDSKDSTYSLSSTLTLSKADYEKHKVYACEVTHQGLSSPVTKSFNRGEC
8 | 77.4 % of control | 103 % of control | GpH7-A5/GpH7-B3 variant S324_10E/GpL16-k0 (antibody, human IgG1, kappa, Heterodimerized IgG1; mutation in the GpH7-B3 chain only; also called He Ab) heavy 1: not shown heavy 2: not shown light: DIVMTQSPLSLPVTPGEPASISCQASESLVHSNRNTYLHWYLQKPGQSPQLLIYKVSNRFSGVPDRFSGSGSGTDFTLKISRVEAEDVGVYYCSQNTHVPPTFGQGTKVEIERTVAAPSVFIFPPSDEQLKSGTASVVCLLNNFYPREAKVQWKVDNALQSGNSQESVTEQDSKDSTYSLSSTLTLSKADYEKHKVYACEVTHQGLSSPVTKSFNRGEC
9 | 78.3 % of control | 102 % of control | GpH7-A5/GpH7-B3 variant S324_02A/GpL16-k0 (antibody, human IgG1, kappa, Heterodimerized IgG1; mutation in the GpH7-B3 chain only; also called He Ab) heavy 1: not shown heavy 2: not shown light: DIVMTQSPLSLPVTPGEPASISCQASESLVHSNRNTYLHWYLQKPGQSPQLLIYKVSNRFSGVPDRFSGSGSGTDFTLKISRVEAEDVGVYYCSQNTHVPPTFGQGTKVEIERTVAAPSVFIFPPSDEQLKSGTASVVCLLNNFYPREAKVQWKVDNALQSGNSQESVTEQDSKDSTYSLSSTLTLSKADYEKHKVYACEVTHQGLSSPVTKSFNRGEC
